{"source": "patent US20170296650A1", "about": "(Novartis, published 2017)", "binders": {"B1": {"name": "7H3 (antibody, V domains shown)", "VH": "QVQLVQSGAEVKNPGASVKVSCKASGYTFTDYYIHWVRQAPGQGLEWMGWFNPNSGGTNFVQNFQGRVTMTRDTSISTAYMELSRLRSDDTAMYYCAKDSAKTASAYYGLNFFYYGMDVWGQGTTVTVSS", "VL": "QSVLSQPPSASGTPGQRVTISCSGSSSNIGKNYVYWYQQVPGTAPKLLMFKNNQRPSGVPDRFSGSKSGTSASLAISGLRSEDEADYYCSAWDGSLSRPLFGGGTKVTVL", "notes": "fully human IgG1 with unaltered Fc; also called 7H3-biotin; LJP538"}, "B2": {"name": "6L3 (antibody, V domains shown)", "VH": "EVRLEESGGGLVQPGGSLRLSCAASGFTVSTTYMAWVRQAPGKGLEWVSLIHTGGIFGVGGTSYADSVKGRFTISRDTSKNTVSLQMSSLRVEDTAIYFCAREHRGTIDAFDAWGQGTVVIVSS", "VL": "DIHMTQSPSSLSASVGDRVTITCRASQNIRNYLNWYQHKPGKAPKLLIYTTSRLQSGVPSRFSGSGSGTDFTLTVNSLQPEDFASYYCQQSYDGWTFGQGTKVEMK"}}, "key": {"[1]": {"biological_target": "T1, hCMV glycoprotein B (gB; HEK293T transfectant) (hCMV, UniProt P06473 32-906)", "T1 construct": "whole, on cells; in the functional rows it stands for gB on virions or transduced cells of the strain or isolate named in the readout", "T1 sequence (P06473 32-906 limits assumed)": "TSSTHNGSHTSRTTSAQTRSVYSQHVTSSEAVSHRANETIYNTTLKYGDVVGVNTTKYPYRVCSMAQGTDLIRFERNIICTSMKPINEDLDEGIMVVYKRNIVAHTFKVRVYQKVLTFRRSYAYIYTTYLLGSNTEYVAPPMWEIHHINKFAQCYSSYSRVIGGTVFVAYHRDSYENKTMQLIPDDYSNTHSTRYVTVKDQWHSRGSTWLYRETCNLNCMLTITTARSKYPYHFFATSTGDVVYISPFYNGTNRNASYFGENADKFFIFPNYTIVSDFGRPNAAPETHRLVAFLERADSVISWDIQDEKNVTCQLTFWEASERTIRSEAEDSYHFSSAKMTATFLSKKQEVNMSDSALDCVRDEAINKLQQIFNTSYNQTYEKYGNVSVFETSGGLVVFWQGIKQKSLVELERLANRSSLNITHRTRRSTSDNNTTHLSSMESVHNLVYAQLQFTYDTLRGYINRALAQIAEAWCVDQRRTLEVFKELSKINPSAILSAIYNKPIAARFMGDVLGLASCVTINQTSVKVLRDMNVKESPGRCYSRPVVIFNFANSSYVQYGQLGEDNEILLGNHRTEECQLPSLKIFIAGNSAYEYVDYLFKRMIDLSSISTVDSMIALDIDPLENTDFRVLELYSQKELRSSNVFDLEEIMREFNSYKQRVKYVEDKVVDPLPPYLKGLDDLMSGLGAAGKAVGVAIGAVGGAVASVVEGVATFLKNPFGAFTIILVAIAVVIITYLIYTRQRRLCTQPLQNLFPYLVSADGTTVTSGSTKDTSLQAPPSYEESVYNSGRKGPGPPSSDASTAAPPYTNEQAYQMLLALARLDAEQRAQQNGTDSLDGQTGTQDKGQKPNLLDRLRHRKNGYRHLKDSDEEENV", "experiment": "cell competition; competitor 4H9-biotin"}, "[2]": {"biological_target": "T2, soluble gB ectodomain expressed in a mammalian cell line (hCMV, UniProt P06473 32-750)", "T2 construct": "extracellular domain", "T2 sequence (P06473 32-750 limits assumed)": "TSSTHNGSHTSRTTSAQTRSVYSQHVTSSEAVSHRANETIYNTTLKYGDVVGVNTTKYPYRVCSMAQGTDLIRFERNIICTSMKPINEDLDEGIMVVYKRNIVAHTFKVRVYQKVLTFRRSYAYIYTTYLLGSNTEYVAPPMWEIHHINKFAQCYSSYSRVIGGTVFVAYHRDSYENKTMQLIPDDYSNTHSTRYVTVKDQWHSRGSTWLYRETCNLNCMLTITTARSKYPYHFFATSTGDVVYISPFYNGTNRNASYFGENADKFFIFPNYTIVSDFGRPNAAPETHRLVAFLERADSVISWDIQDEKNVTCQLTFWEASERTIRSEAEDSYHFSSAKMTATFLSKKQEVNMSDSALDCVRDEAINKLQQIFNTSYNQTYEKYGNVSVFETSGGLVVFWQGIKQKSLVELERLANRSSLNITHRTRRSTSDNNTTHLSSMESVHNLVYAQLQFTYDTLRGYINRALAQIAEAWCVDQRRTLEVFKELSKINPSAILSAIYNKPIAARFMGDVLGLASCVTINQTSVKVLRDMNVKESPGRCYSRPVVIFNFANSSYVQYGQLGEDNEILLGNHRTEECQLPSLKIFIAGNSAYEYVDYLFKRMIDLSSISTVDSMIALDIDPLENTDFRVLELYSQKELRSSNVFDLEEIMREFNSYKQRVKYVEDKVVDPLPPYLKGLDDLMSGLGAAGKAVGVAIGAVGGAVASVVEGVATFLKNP", "experiment": "ELISA, soluble gB ectodomain; ELISA on soluble gB ectodomain (4I22 was measured by Biacore on the 5-member complex)"}, "[3]": {"biological_target": "T1, hCMV glycoprotein B (gB; HEK293T …)", "experiment": "cell competition; competitor 6B4-biotin"}, "[4]": {"biological_target": "T1, hCMV glycoprotein B (gB; HEK293T …)", "experiment": "cell-based or functional assay"}, "[5]": {"biological_target": "T1, hCMV glycoprotein B (gB; HEK293T …)", "experiment": "cell competition; competitor 10C6-biotin"}, "[6]": {"biological_target": "T1, hCMV glycoprotein B (gB; HEK293T …)", "experiment": "cell-based or functional assay", "remark": "listed apart in the source"}, "[7]": {"biological_target": "T1, hCMV glycoprotein B (gB; HEK293T …)", "experiment": "cell-based or functional assay", "remark": "listed apart in the source"}, "[8]": {"biological_target": "T1, hCMV glycoprotein B (gB; HEK293T …)", "experiment": "cell competition; competitor 5F1-biotin"}, "[9]": {"biological_target": "T1, hCMV glycoprotein B (gB; HEK293T …)", "experiment": "cell-based or functional assay", "remark": "listed apart in the source"}, "[10]": {"biological_target": "T1, hCMV glycoprotein B (gB; HEK293T …)", "experiment": "cell-based or functional assay", "remark": "listed apart in the source"}, "[11]": {"biological_target": "hCMV gB E361K + D362N (virus selected with 7H3 in fibroblasts) (hCMV)", "experiment": "cell-based or functional assay"}, "[12]": {"biological_target": "hCMV gB E381 deletion (virus selected with 7H3 in epithelial cells) (hCMV)", "experiment": "cell-based or functional assay"}, "[13]": {"biological_target": "T1, hCMV glycoprotein B (gB; HEK293T …)", "experiment": "cell-based or functional assay", "remark": "listed apart in the source"}, "[14]": {"biological_target": "T1, hCMV glycoprotein B (gB; HEK293T …)", "experiment": "cell competition; competitor 2B11-biotin"}, "[15]": {"biological_target": "T1, hCMV glycoprotein B (gB; HEK293T …)", "experiment": "cell competition; competitor 7H3-biotin"}, "[16]": {"biological_target": "T3, hCMV gM + gN (HEK293T co-transfectant) (hCMV, UniProt P16733 1-372; P16795 22-138)", "T3 sequence 1": "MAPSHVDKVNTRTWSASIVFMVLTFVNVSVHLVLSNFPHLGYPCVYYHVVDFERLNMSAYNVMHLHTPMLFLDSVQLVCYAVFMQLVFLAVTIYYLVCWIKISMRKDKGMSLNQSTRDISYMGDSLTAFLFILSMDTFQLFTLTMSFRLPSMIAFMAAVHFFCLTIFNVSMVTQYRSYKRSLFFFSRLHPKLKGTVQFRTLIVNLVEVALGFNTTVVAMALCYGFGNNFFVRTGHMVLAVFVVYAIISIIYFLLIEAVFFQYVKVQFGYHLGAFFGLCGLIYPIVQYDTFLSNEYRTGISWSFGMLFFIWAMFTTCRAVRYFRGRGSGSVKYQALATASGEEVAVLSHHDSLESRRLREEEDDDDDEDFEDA", "T3 sequence 2": "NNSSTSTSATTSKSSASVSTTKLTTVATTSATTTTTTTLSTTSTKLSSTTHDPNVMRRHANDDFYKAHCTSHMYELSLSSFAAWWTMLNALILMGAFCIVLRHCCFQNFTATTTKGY", "experiment": "cell-based or functional assay"}, "[17]": {"biological_target": "T3, hCMV gM + gN (HEK293T co-transfectant)", "experiment": "cell-based or functional assay", "remark": "listed apart in the source"}}, "data": [{"binder": "B1", "values": [{"measurement": "Inhibition of binding (%)", "setting": "[1]", "value": 0, "unit": "%"}, {"measurement": "Kd", "setting": "[2]", "value": 0.29, "unit": "nM"}, {"measurement": "Inhibition of binding (%)", "setting": "[3]", "value": 0, "unit": "%"}, {"measurement": "EC90 neutralization HUVEC, isolate TM-20749", "setting": "[4]", "value": 1.18, "unit": "µg/mL"}, {"measurement": "EC90 neutralization HUVEC, isolate TM-31354", "setting": "[4]", "value": 2.2, "unit": "µg/mL"}, {"measurement": "EC90 neutralization HUVEC, isolate TM-E5271", "setting": "[4]", "value": 0.19, "unit": "µg/mL"}, {"measurement": "EC90 neutralization HUVEC, isolate TM-E9361", "setting": "[4]", "value": 0.29, "unit": "µg/mL"}, {"measurement": "EC90 neutralization HUVEC, isolate TM-E14953", "setting": "[4]", "value": 0.12, "unit": "µg/mL"}, {"measurement": "EC90 neutralization HUVEC, isolate TM-E19664", "setting": "[4]", "value": 0.31, "unit": "µg/mL"}, {"measurement": "EC90 neutralization HUVEC, isolate TM-E20744", "setting": "[4]", "value": 0.39, "unit": "µg/mL"}, {"measurement": "EC90 neutralization HUVEC, isolate TM-E28175", "setting": "[4]", "value": 0.28, "unit": "µg/mL"}, {"measurement": "EC90 neutralization HUVEC, isolate TM-E28257", "setting": "[4]", "value": 1.02, "unit": "µg/mL"}, {"measurement": "Inhibition of binding (%)", "setting": "[5]", "value": 0, "unit": "%"}, {"measurement": "neutralization of ARPE infection, isolate TM-20749", "setting": "[6]", "value": 4.36, "unit": "µg/mL"}, {"measurement": "neutralization of ARPE infection, isolate TM-31354", "setting": "[6]", "value": 1.42, "unit": "µg/mL"}, {"measurement": "neutralization of ARPE infection, isolate TM-E5271", "setting": "[6]", "value": 0.17, "unit": "µg/mL"}, {"measurement": "neutralization of ARPE infection, isolate TM-E9361", "setting": "[6]", "value": 0.33, "unit": "µg/mL"}, {"measurement": "neutralization of ARPE infection, isolate TM-E14953", "setting": "[6]", "value": 1.09, "unit": "µg/mL"}, {"measurement": "neutralization of ARPE infection, isolate TM-E19664", "setting": "[6]", "value": 0.26, "unit": "µg/mL"}, {"measurement": "neutralization of ARPE infection, isolate TM-E20744", "setting": "[6]", "value": 1.37, "unit": "µg/mL"}, {"measurement": "neutralization of ARPE infection, isolate TM-E28175", "setting": "[6]", "value": 0.24, "unit": "µg/mL"}, {"measurement": "neutralization of ARPE infection, isolate TM-E28257", "setting": "[6]", "value": 1.16, "unit": "µg/mL"}, {"measurement": "50% neutralization VR1814, ARPE", "setting": "[7]", "value": "> 2", "unit": "µg/mL"}, {"measurement": "50% neutralization VR1814, MRC-9", "setting": "[7]", "value": "≤ 2", "unit": "µg/mL"}, {"measurement": "Inhibition of binding (%)", "setting": "[8]", "value": 0, "unit": "%"}, {"measurement": "90% neutralization VR1814, ARPE", "setting": "[9]", "value": 0.6, "unit": "µg/mL"}, {"measurement": "90% neutralization VR1814, MRC-9", "setting": "[9]", "value": 3, "unit": "µg/mL"}, {"measurement": "50% neutralization VR1814, BM-MSC", "setting": "[10]", "value": 2, "unit": "µg/mL"}, {"measurement": "50% neutralization VR1814, Mo-DC", "setting": "[10]", "value": 0.06, "unit": "µg/mL"}, {"measurement": "fold increase in neutralization EC50 of escape virus", "setting": "[11]", "value": "> 41", "unit": "fold"}, {"measurement": "fold decrease in susceptibility of escape virus", "setting": "[12]", "value": 22, "unit": "fold"}, {"measurement": "EC50 inhibition of cell-cell fusion", "setting": "[13]", "value": 4.77, "unit": "µg/mL"}, {"measurement": "Inhibition of binding (%)", "setting": "[14]", "value": 0, "unit": "%"}, {"measurement": "Inhibition of binding (%)", "setting": "[15]", "value": 100, "unit": "%"}]}, {"binder": "B2", "values": [{"measurement": "50% neutralization VR1814, ARPE", "setting": "[16]", "value": "≤ 2", "unit": "µg/mL"}, {"measurement": "90% neutralization VR1814, ARPE", "setting": "[17]", "value": 10, "unit": "µg/mL"}, {"measurement": "90% neutralization VR1814, MRC-9", "setting": "[17]", "value": 30, "unit": "µg/mL"}]}]}
